Results published in patent US20230279079A1 (CHANG GUNG MEMORIAL HOSPITAL LINKOU, published 2023).

What was measured:
Test in all cases: ELISA
[1] = molecular target: T1, Human coronavirus OC43 spike extracellular domain (human coronavirus OC43, UniProt P36334 14-1297)
T1 construct: extracellular domain

[2] = molecular target: T2, SARS-CoV-2 spike S1 subunit (SARS-CoV-2, UniProt P0DTC2 16-685)
T2 construct: domain: S1 subunit

[3] = molecular target: T3, SARS-CoV-2 spike extracellular domain (SARS-CoV-2, UniProt P0DTC2 14-1213)
T3 construct: extracellular domain; also called spike protein of SARS-CoV-2

[4] = molecular target: T4, SARS-CoV-2 spike S2 subunit (SARS-CoV-2, UniProt P0DTC2 686-1213)
T4 construct: domain: S2 subunit

[5] = molecular target: T5, SARS spike S1 subunit (severe acute respiratory syndrome …, UniProt P59594 14-667)
T5 construct: domain: S1 subunit

[6] = molecular target: T6, MERS spike extracellular domain (Middle East respiratory syndrome …, UniProt K9N5Q8 18-1296)
T6 construct: extracellular domain

[7] = molecular target: T7, SARS-CoV-2 spike receptor binding domain (RBD) (SARS-CoV-2, UniProt P0DTC2 319-541)
T7 construct: also called SARS-CoV-2 RBD

T6 sequence (K9N5Q8 18-1296): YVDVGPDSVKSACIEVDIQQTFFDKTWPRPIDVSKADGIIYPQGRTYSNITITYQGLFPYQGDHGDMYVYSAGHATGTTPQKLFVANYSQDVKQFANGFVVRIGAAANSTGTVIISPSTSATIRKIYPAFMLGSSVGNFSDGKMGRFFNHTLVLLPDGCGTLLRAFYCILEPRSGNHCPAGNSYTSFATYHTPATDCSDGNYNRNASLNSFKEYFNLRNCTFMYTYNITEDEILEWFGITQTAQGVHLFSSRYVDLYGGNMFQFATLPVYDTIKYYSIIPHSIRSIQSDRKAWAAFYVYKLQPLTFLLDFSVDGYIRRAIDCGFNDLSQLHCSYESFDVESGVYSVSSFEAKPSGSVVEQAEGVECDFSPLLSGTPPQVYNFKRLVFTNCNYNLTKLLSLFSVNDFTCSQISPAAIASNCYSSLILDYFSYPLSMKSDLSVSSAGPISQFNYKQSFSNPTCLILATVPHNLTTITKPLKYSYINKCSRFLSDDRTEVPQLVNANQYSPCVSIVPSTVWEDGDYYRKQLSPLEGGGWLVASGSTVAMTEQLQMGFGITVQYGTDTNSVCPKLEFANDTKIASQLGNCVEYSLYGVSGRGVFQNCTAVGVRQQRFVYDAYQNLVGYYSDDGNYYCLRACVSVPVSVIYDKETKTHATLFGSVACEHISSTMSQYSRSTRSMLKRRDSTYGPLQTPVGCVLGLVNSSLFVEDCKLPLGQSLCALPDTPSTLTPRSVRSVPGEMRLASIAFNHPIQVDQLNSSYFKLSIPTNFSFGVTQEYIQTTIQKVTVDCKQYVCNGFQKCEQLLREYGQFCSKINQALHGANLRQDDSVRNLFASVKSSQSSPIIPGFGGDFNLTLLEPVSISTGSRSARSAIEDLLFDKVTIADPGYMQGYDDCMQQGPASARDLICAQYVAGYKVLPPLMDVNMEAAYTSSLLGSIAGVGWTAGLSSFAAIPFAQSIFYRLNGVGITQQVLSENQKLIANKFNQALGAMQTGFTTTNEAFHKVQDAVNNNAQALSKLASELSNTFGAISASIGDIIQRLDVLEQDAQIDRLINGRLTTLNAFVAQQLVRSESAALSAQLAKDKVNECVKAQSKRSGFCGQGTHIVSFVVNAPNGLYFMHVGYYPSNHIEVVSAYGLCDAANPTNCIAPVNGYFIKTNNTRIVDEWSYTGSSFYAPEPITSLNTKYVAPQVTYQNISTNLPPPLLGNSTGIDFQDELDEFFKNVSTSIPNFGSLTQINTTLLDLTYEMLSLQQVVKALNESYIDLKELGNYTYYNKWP
T1 sequence (P36334 14-1297): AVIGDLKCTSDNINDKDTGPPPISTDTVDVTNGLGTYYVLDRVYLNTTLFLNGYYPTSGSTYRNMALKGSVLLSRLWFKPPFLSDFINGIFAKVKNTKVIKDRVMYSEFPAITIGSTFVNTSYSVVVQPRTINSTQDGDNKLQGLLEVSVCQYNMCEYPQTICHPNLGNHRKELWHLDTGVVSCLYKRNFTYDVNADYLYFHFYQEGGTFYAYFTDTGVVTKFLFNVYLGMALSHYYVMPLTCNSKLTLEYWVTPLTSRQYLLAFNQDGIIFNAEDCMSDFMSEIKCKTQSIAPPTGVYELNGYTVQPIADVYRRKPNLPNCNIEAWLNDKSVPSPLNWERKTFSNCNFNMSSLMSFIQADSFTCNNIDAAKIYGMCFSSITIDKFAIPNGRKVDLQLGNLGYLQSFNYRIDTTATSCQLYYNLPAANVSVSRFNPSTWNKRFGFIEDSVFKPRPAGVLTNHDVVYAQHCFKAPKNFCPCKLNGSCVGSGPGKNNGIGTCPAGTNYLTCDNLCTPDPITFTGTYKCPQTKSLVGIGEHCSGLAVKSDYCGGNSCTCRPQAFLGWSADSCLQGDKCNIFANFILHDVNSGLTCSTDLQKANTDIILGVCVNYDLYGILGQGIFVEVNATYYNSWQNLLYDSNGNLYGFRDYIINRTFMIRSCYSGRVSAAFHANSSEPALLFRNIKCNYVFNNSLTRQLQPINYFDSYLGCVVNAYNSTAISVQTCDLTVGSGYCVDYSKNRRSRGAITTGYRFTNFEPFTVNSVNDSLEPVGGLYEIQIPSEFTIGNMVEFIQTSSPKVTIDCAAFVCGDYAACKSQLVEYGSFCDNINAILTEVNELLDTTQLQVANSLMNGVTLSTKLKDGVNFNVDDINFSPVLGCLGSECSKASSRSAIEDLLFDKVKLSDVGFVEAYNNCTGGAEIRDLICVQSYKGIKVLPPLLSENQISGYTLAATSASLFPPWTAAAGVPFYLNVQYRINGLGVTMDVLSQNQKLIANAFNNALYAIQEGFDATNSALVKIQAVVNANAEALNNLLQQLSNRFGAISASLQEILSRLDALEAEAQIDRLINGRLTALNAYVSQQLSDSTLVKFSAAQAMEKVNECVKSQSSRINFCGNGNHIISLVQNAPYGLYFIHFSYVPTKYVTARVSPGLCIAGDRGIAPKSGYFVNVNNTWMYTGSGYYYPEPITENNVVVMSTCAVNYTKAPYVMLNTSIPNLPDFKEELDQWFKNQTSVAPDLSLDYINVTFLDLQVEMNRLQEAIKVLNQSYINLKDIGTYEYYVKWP

B1: FD 1D (antibody, V domains shown)
VH: EVQLVESGGGVVQPGRSLRLSCAASGFTFSSYAMHWVRQAPGKGLEWVAVISYDGSNKYYADSVKGRFTISRDNSKNTLYLQMNSLRAEDTAVYYCARAGSGSYLNWFDPWGQGTLVTVSS
VL: EIVLTQSPATLSLSPGERATLSCRASQSVSSYLAWYQQKPGQAPRLLIYDASNRATGIPARFSGSGSGTDFTLTISSLEPEDFAVYYCQQRSNWPITFGQGTRLEIK
B1: binds [1]; no binding [2]; binds [3]. B1: binds [4]; binds [5]; binds [6]. B1: no binding [7].
